Tested on: MS2 coat protein
Assay: apparent KD of MS2 coat protein; designed switch direction (-1 OFF switch, 1 ON switch): -1; higher = weaker reporter binding
In short: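 Stalled E. coli RNA polymerase transcribed designed RNA switches on Illumina chips, which were then titrated with SNAP-549-labelled MS2 coat protein, doubling from 0.7 or 1.5 nM to 3 µM. Steps lasted from 0.8–1.5 h at the lowest concentration to 10–20 min at the highest. The apparent KD is each design's median over clusters of curve-fitted normalised fluorescence.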

[1] = input ligand: microRNA oligo, concentration not stated
[2] = Eterna round: R95, input ligand: FMN 200 uM
[3] = Eterna round: R95, input ligand: microRNA oligo, concentration not stated
[4] = Eterna round: R95, input ligand: none

Sequence | apparent KD of MS2 coat protein (input ligand: FMN 200 uM) [nM] | apparent KD of MS2 coat protein [1] [nM] | apparent KD of MS2 coat protein (input ligand: none) [nM] | apparent KD of MS2 coat protein [2] [nM] | apparent KD of MS2 coat protein [3] [nM] | apparent KD of MS2 coat protein [4] [nM]
GGAUAAAAGUCAGGAUAUACGUAUCGCUAGCGAGUAGAAGGGACACAUGAGGAUCACCCAUGUGAGUUCUCAAUAAGAAACACG [Prohibition 61 - Jieux - Exclusion NG 1] (Eterna round: R96, puzzle: Exclusion NG 1) | 45.5 | 16.3 | 19.5 | – | – | –
GGGCUUCGAGUCAGGAUAUAAGGCCGCUGGCCCAUUUAGAAGGGACUUGAGGAUCACCCAAGUCACCACGGACG [Geceisbi] (Eterna round: R97, puzzle: Brourd's mod of Exclusion 4) | 19.3 | – | 16.8 | – | – | –
GGUUGGCGAGGAUAUACAUGAGGAUCACCCAUGUGAGAGAAAACAGUGAGGAAGAAAAGUAGAAGGCGCUGACG [salish99_ex3_r3_024] (puzzle: Exclusion 3) | – | – | – | 466 | 52.6 | 48
GUCAGACGAGGAUAUGAUCAAUAAUACAUGAGGAUCACCCAUGUAAUACUGAUCCAUGGAUCAGAAGGCGUCUGAC [E5/5-A4] (Eterna round: R97, puzzle: Exclusion 5) | 23.4 | – | 15.4 | – | – | –
CAAAAGGUAGGAUAUACGAAAAAAAAGGGUAGAAAAAAAACACAUGAGGAUCACCCAUGUAGAAGGACCAAAAU [salish99_ex2_r3_054] (puzzle: Exclusion 2) | – | – | – | 90.9 | 24.3 | 22.5
GCACGGUGAGGAUAUAUAAAUGGGCAUGUCGAGAACCGUUCACAUGAGGAUCACCCAUGUAGAAGGCGCCUGUG [Eternabot (L2) Solution 58] (Eterna round: R97, puzzle: Exclusion 2) | 115 | – | 49 | – | – | –
AGUACUAACACGAAAGUGUUAGUACAAUAAGCUUGUAAAACAUGAGGAUCACCCAUGUCCUCAUAAGCUCGUCUUAU [Mat - Sensor v3 - Turn-off var 2 - D47] (puzzle: Sensor v3, turn-off variant 2) | – | – | – | 250 | 11.5 | 446
GCAGGAUAAGUGAGGAUAUACCUAUGGAUACAUAGGUAGAAGGUACAUGAGGAUCACCCAUGUUCCUCACCUGC [Fiskers BMX 4 - 64] (puzzle: Brourd's mod of Exclusion 4) | – | – | – | – | 10.1 | –
UGAUGACAUGAGGAUCACCCAUGUCAGGAUAUUGAUCGUGAUCGGAAAUGAUCGUGAUCGAGAAGGGACUGUCG [-24.4, -21.4 kcal, A 28%, 2] (Eterna round: R97, puzzle: Exclusion 1) | 31.8 | – | 27.6 | – | – | –
GCCCUCGCUGAGGAUAUUAUCUGGCUCGACCGAUAAGAAGGCAGUACAUGAGGAUCACCCAUGUGGUUCGUUCG [Polaris46] (Eterna round: R97, puzzle: Exclusion 6) | 97.9 | – | 41 | – | – | –
GUUACACAUGAGGAUCACCCAUGUAAGGAUAUGCUGCGGUCGCGCUGACGUGACUGCAGCAGAAGGUACAAAUG [Mat - Mod of JL D56] (puzzle: Exclusion 1) | – | – | – | – | 59.3 | –
GAUCAACAUGAGGAUCACCCAUGUGAGGAUAUGAUACUAUGUACUUCGGUACAUAGUAUCAGAAGGCAUUAGGA [Ex1-3: 39] (puzzle: Exclusion 1) | – | – | – | – | 52.3 | –
GUUGUUUAUGUAGGAUAUGCAAGGCGAGCCUAAGCAGAAGGACAUGAGGAUCACCCAUGUAUUGCGGUCUGCGUUCAGAUCGCU [salish99_ExNG1_r4_015] (Eterna round: R96, puzzle: Exclusion NG 1) | 164 | 17.3 | 25.9 | – | – | –
AGCGCCAUCGUGAGAUGGCGUAUUACAUGAGGAUCACCCAUGUAGGAUAUCGAUUGCUUUGCAGUCGAGAAGGGCAUGUCCUAG [JL ENG3 3.80 Mod H] (Eterna round: R96, puzzle: Exclusion NG 3) | – | 25 | – | – | – | –
GGUCGUCAAGUCAGGAUAUCGUAUAGUCGAUGUAACGAGAAGGGACAUGAGGAUCACCCAUGUCGUCUCAUCAG [Ex4 #25] (Eterna round: R97, puzzle: Brourd's mod of Exclusion 4) | 18.2 | – | 17.7 | – | – | –
GUAGAGUCAGGAUAUACAAGAUCGAAAGAUCAAAGGUCCAUACAUGAGGAUCACCCAUGUAGAAGGGACUCUAC [Eli x2 4.09] (Eterna round: R97, puzzle: Exclusion 2) | 36.4 | – | 24.5 | – | – | –

Sequence | apparent KD of MS2 coat protein (input ligand: FMN 200 uM) [nM] | apparent KD of MS2 coat protein [1] [nM] | apparent KD of MS2 coat protein (input ligand: none) [nM] | apparent KD of MS2 coat protein [2] [nM] | apparent KD of MS2 coat protein [3] [nM] | apparent KD of MS2 coat protein [4] [nM]
GUACUGAAGCAUAGCUUUAGUCGUACAUGAGGAUCACCCAUGUAGGAUAUGGUAGGCAUAGCUUACUAGAAGGAUAGAGUGAUC [Mat - Exclusion NG 3 - Mod of JL - D72] (Eterna round: R96, puzzle: Exclusion NG 3) | 440 | 71.6 | 137 | – | – | –
GCACGGAGUGUAGGAUAUUAGUGCGAUUAGCACUGAGAAGGACAUGAGGAUCACCCAUGUUCCUCAAUAACUCACCUUCCGUGC [Eli exng1 - 043] (Eterna round: R96, puzzle: Exclusion NG 1) | 9.73 | 10.6 | 11.5 | – | – | –
UGUCAGUCAGGAUAUGCAUACGUAGACAUGAGGAUCACCCAUGUGACGUGGGACUGGUGUGUAGAAGGGACGAACA [EX5 #79] (Eterna round: R97, puzzle: Exclusion 5) | 29.8 | – | 28.6 | – | – | –
CUUCAGUCAGGAUAUCUGCACGCUGGUGAGACCGGACGGAAGGAGAAGGGACAUGAGGAUCACCCAUGUAAAGC [Xesoar] (puzzle: Exclusion 4) | – | – | – | – | 15.7 | –
AGAGACCGAGGAUAUCCCAGAACUCACAUGAGGAUCACCCAUGUGUAGAUUGGGUGUCACGGAGAAGGCGGAUCGC [EX5 C.21] (Eterna round: R97, puzzle: Exclusion 5) | 14 | – | 13.8 | – | – | –
UAUGGUUAAGUCAGGAUAUACUCAUAGAAGUCUGUGUAGAAGGGACAUGAGGAUCACCCAUGUAUGGUAGUGUU [Ex4 #47] (Eterna round: R97, puzzle: Brourd's mod of Exclusion 4) | 151 | – | 159 | – | – | –
CAAAAGCUAGGAUAUACACAAAACGCCUGCAUGCAAACAUCACAUGAGGAUCACCCAUGUAGAAGGAGCGGAAA [EX2 A.21] (Eterna round: R97, puzzle: Exclusion 2) | 22.1 | – | 19.1 | – | – | –
AAUGUCCAACGAGGAUAUGGGAAAGGAAGUGUACCAGAAGGCGUACGGACAUGAGGAUCACCCAUGUCGCGCGGCGCGAUGUGG [PowerStrip EXNG 1.14] (Eterna round: R96, puzzle: Exclusion NG 1) | 80.9 | 46.4 | 52.7 | – | – | –
GAAUGAGAGCAGGAUAUCUUAAAAAUGUAUCAAAGAGAAGGGCUCACAUGAGGAUCACCCAUGUGGUCCUAGAU [jl-ex6-4.67 jandersonlee mod] (Eterna round: R97, puzzle: Exclusion 6) | 152 | – | 22.5 | – | – | –
GUGUCACAUGAGGAUCACCCAUGUGAGGAUAUCAUGCUUCGUAGUAAACUACGAAGUGUGAGAAGGCACAUGAC [Omei Ex1 E1] (Eterna round: R97, puzzle: Exclusion 1) | 71 | – | 47.8 | – | – | –
UUUAAGGGAAUUAAGAUCACAUGAGGAUCACCCAUGUAUAUAUAGGAUAUCAGCUCGAUUAGAGCUGAGAAGGAUAUAUACAUA [ExNG3/6-A1] (Eterna round: R96, puzzle: Exclusion NG 3) | 126 | 79.7 | 165 | – | – | –
GCUGGUCAAGGAUAUGCAAUCGUGCUUCGGCACGUAAGGUCACAUGAGGAUCACCCAUGUAGAAGGUGACCAGC [E2/4-C1] (Eterna round: R97, puzzle: Exclusion 2) | 27.8 | – | 18.4 | – | – | –
GCAGUAUGAGUUAGGAUAUGAUGAUUUAAAAUAAAUCAGAAGGAACUUGAGGAUCACCCAAGUAAAGAAUUGGU [JR_BMEx4_Sub071] (Eterna round: R97, puzzle: Brourd's mod of Exclusion 4) | 25.3 | – | 22.1 | – | – | –
UUCCUCAUAACAUGAGGAUCACCCAUGUAUUAUUUGGUAACUGAGGAUAUACUUUUAAUGUUUAUGUAGAAGGCAGAUACAGUU [JR_ExcNG3_Sub017] (Eterna round: R96, puzzle: Exclusion NG 3) | 165 | 80.4 | 109 | – | – | –
ACUGUUUGAUUCCUCUUAUACAUGAGGAUCACCCAUGUUAUCGAGGAUAUGCAUUAGAGUGUUUAGCAGAAGGCGAUGUAAUUG [JR_ExcNG3_Sub033] (Eterna round: R96, puzzle: Exclusion NG 3) | 112 | 8.68 | 17.9 | – | – | –
